Source: patent US20240336661A1, “PEPTIDES DERIVED FROM RUMINOCOCCUS TORQUES” (University of Copenhagen, priority 2021, published 2024)

Tests used:
[1] = target: αV/β5 integrin receptor complex (Homo sapiens, UniProt P06756+P18084); assay: Co-immunoprecipitation on a nickel ion column; type: binding; conditions: 100 nM Fc-fused RUCILP2, 5 nM His-tag αV/β5 integrin
Procedure: FIG. 6. Co-immunoprecipitation on a nickel ion column to validate binding of recombinant RUCILP2 to the αV/β5 integrin receptor complex. 100 nM Fc-fused RUCILP2 was incubated with 5 nM of His-tag αV/β5 integrin receptor, followed by immunoprecipitation using nickel-nitrilotriacetic acid (Ni-NTA) agarose. Precipitated integrins and co-precipitated irisin were analyzed by immuno-blot analysis. Elution indicates a mixture of disassociated integrin and RUCILP2 from the integrin-RUCILP2 complex. Before loading, samples were a mixture of co-incubation of RUCILP2 and integrin receptor.
• Step 1: Binding of integrin and RUCILP2. One hundred nM FC-tagged RUCILP2 was incubated with 5 nM of the indicated his-tag integrin avb5 in a final volume of 500ul in 1.5 ml Protein LoBind Tubes (Eppendorf, 022431081) for 5/30/90 minutes at room temperature under rotation. • Step 2: After rotation, Ni spin column (ThermoFisher Scientific, R901-01) was applied to immunoprecipitate integrins. In details, Add 500 μl of FC-RUCILP2-integrin-His protein complex to the column. Mix end-over-end at 4° C. for 15 minutes. […] Precipitated integrin was detected by immuno-blot analysis against his tag. Co-precipitated RUCILP2 was detected by immunoblot analysis against FC-tag. […]

[2] = system: adipocytes; assay: Oil red O staining of lipids in adipocytes; type: cell-based, mouse
Procedure: FIG. 10. […] Staining was performed on 10% formalin-fixed adipocytes according to the manufacturer's protocol.
Oil red O staining of lipids in adipocytes was performed according to the protocol below: • (1) Fixation—Remove the medium and gently wash the cells twice with PBS. Add formalin (10%) to the cells and incubate for 30 minutes • (2) Discard the formalin and wash the cells twice using sterile water. Add 60% isopropanol to the cells and incubate for 5 minutes • (3) Discard 60% isopropanol and cover the cells evenly with Oil Red O Working Solution. Rotate the plate or dish, and incubate for 15 minutes • (4) Discard the Oil Red O solution and wash the cells four times with water until no excess stain is seen • (5) Add hematoxylin to the cells and incubate for 1 minute. Discard hematoxylin and wash the cells four times with water • (6) Cover the cells with sterile water and view under microscope. Lipid droplets appear red, and nuclei appear blue

[3] = system: HepG2 cell line; assay: Gluconeogenesis gene expression in HepG2 cells; type: cell-based; conditions: HepG2, q-PCR
Procedure: FIG. 13. […] The cells were treated with various doses of RUCILP2, and cells were collected for q-PCR quantification on indicated genes. For integrin inhibitor treatment, cells were treated with 10 uM of cRGDyK (Selleckchem, #S7844) for 10 minutes and washed with PBS before treated with RUCILP2. Data are presented as mean+/−SEM of one representative experiment done in technical triplicate. Statistical significance was determined by unpaired two-tailed Student's t-test. *, p<0.05 vs 0 nM RUCILP2.
HepG2 cells were seeded on 12-well plates under DMEM/F-12 medium (Dulbecco's Modified Eagle Medium/Nutrient Mixture F-12, Fisher Scientific, #11524436), supplemented with 10% FBS (Fetal Bovine Serum, Fisher Scientific, #11550356) and 1% Penicillin-Streptomycin (Fisher Scientific, #11548876). Cell cultures were maintained in a humidified chamber with 5% C02 at 37° C., and culture media were changed every 2-3 days.
At 70% confluence, to induce insulin resistance, HepG2 cells were incubated with 18 mM glucosamine (GlcN) for 18 h in serum-free medium, followed by treatment with recombinant RUCILP2 or commercial recombinant irisin (Sigma, #SRP8039-10UG and Phoenix pharmaceuticals, #067-29A), or saline for 24 h. […]

Chain of αV/β5 integrin receptor complex (P06756 31-992 limits assumed): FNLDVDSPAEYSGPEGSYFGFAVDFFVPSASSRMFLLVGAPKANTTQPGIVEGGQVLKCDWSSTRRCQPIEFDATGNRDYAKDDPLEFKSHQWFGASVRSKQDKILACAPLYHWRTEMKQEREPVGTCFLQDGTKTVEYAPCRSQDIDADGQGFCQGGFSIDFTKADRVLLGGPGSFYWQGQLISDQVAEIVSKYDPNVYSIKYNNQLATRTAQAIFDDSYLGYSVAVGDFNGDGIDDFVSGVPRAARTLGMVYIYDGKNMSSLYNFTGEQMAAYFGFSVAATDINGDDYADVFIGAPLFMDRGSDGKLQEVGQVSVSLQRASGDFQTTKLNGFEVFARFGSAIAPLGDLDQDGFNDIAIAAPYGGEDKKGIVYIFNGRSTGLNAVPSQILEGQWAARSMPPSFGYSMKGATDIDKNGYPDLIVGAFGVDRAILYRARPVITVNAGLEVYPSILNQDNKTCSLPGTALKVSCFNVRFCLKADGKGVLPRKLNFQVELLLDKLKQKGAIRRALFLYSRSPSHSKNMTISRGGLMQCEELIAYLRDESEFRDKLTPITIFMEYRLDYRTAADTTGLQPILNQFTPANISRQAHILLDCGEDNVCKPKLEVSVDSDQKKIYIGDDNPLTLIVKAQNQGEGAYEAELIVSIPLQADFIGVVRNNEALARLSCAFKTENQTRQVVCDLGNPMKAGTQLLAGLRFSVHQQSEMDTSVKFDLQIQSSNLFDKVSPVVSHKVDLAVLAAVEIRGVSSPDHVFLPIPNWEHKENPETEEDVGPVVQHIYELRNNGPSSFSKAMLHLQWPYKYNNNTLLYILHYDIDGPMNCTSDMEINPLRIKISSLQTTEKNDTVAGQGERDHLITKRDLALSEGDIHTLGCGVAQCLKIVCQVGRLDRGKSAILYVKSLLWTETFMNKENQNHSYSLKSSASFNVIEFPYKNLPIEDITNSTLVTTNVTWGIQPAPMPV
Chain of αV/β5 integrin receptor complex (P18084 24-719 limits assumed): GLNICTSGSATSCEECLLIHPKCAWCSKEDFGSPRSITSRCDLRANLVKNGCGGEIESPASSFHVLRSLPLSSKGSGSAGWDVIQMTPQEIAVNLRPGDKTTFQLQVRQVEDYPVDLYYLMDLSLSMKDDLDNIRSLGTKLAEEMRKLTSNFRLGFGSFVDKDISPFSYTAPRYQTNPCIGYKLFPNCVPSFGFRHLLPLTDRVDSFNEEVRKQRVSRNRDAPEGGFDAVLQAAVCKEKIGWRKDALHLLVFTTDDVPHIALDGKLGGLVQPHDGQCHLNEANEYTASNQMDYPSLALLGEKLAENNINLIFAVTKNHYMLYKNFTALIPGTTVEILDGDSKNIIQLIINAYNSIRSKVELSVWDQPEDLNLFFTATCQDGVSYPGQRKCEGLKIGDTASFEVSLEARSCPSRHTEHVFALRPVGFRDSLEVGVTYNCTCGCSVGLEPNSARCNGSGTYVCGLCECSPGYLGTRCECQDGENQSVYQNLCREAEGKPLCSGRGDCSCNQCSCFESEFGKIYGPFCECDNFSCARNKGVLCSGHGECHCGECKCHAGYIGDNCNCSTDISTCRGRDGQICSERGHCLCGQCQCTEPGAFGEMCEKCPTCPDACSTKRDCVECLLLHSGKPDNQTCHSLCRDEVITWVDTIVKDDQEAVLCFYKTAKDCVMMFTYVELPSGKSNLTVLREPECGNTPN

B1: RUCILP2: 87 amino acid irisin-like polypeptide cleaved from the Ruminococcus torques FNDC5-like protein RUMTOR_00181; recombinant, 6-His-tagged from E. coli (protein)
chain: APVDVKVSEITETSAKASWKNAADGKEAAGYNVYVDGVKLNKELLTEASCGLTNLKAETTYFVEVTAVDAAGNESVKSEKVTFKTLK
modifications: 6-His tag; Ruminococcus torques
notes: 87 amino acid irisin-like polypeptide cleaved from the Ruminococcus torques FNDC5-like protein RUMTOR_00181; recombinant, 6-His-tagged from E. coli
- binding to αV/β5 integrin receptor (co-immunoprecipitation) [1]: direct interaction
- lipid content in adipocytes (oil red O staining) [2]: reduces lipid content
- expression of genes involved in gluconeogenesis [3]: reduces expression
